Substrate in data set [1]: O=CC(=O)O
Nature of the data set: spectrophotometric assay of pyruvate, coupled lactate dehydrogenase. Type of data set: biochemical, Homo sapiens. Particulars: saturating L-alanine as co-substrate; saturating PLP.

Data set [2] deals with the molecule itself. Nature of the data set: dynamic light scattering.
Substrate in data set [3]: C[C@H](N)C(=O)O
Nature of the data set: spectrophotometric assay of pyruvate, coupled lactate dehydrogenase. In kind it is biochemical, Homo sapiens. The following applies: saturating glyoxylate as co-substrate; saturating PLP.

B1: AGT-Mi (Homo sapiens; G161S/I340M/P11L) (protein)
chain: MASHKLLVTPLKALLKPLSIPNQLLLGPGPSNLPPRIMAAGGLQMIGSMSKDMYQIMDEIKEGIQYVFQTRNPLTLVISGSGHCALEAALVNVLEPGDSFLVGANGIWGQRAVDIGERIGARVHPMTKDPGGHYTLQEVEEGLAQHKPVLLFLTHGESSTSVLQPLDGFGELCHRYKCLLLVDSVASLGGTPLYMDRQGIDILYSGSQKALNAPPGTSLISFSDKAKKKMYSRKTKPFSFYLDIKWLANFWGCDDQPRMYHHTIPVISLYSLRESLALIAEQGLENSWRQHREAAAYLHGRLQALGLQLFVKDPALRLPTVTTVAVPAGYDWRDIVSYVMDHFDIEIMGGLGPSTGKVLRIGLLGCNATRENVDRVTEALRAALQHCPKKKL
One may read the Km as the concentration of substrate that gives half-maximal velocity. A word on the kcat: it is the maximal rate divided by the concentration of active sites. As a reminder, the kcat/Km is the turnover number divided by the Michaelis constant. As to B1, in data set [1], the Km stood at 630 ± 70 µM, the kcat amounted to 58 ± 2 s⁻¹ and the specificity constant (kcat/Km) amounted to 92000 ± 2000 M⁻¹ s⁻¹.

B2: alanine:glyoxylate aminotransferase variant G350D on the minor allele (enzyme, human, UniProt P21549 1-392, looked up)
chain: MASHKLLVTPLKALLKPLSIPNQLLLGPGPSNLPPRIMAAGGLQMIGSMSKDMYQIMDEIKEGIQYVFQTRNPLTLVISGSGHCALEAALVNVLEPGDSFLVGANGIWGQRAVDIGERIGARVHPMTKDPGGHYTLQEVEEGLAQHKPVLLFLTHGESSTGVLQPLDGFGELCHRYKCLLLVDSVASLGGTPLYMDRQGIDILYSGSQKALNAPPGTSLISFSDKAKKKMYSRKTKPFSFYLDIKWLANFWGCDDQPRMYHHTIPVISLYSLRESLALIAEQGLENSWRQHREAAAYLHGRLQALGLQLFVKDPALRLPTVTTVAVPAGYDWRDIVSYVMDHFDIEIMGDLGPSTGKVLRIGLLGCNATRENVDRVTEALRAALQHCPKKKL
modifications: holo-form: pyridoxal 5'-phosphate in Schiff base linkage with the lysine at position 209; apo-form: without PLP
As a reminder, the stoichiometry N is the number of molecules, sites or subunits per partner or assembly. In the case of B2, the “stoichiometry N” value in data set [2] was 2.

B3: AGT-Ma (Homo sapiens; P319L) (protein)
chain: MASHKLLVTPPKALLKPLSIPNQLLLGPGPSNLPPRIMAAGGLQMIGSMSKDMYQIMDEIKEGIQYVFQTRNPLTLVISGSGHCALEAALVNVLEPGDSFLVGANGIWGQRAVDIGERIGARVHPMTKDPGGHYTLQEVEEGLAQHKPVLLFLTHGESSTGVLQPLDGFGELCHRYKCLLLVDSVASLGGTPLYMDRQGIDILYSGSQKALNAPPGTSLISFSDKAKKKMYSRKTKPFSFYLDIKWLANFWGCDDQPRMYHHTIPVISLYSLRESLALIAEQGLENSWRQHREAAAYLHGRLQALGLQLFVKDPALRLLTVTTVAVPAGYDWRDIVSYVIDHFDIEIMGGLGPSTGKVLRIGLLGCNATRENVDRVTEALRAALQHCPKKKL
In the case of B3, in data set [1], the Michaelis-Menten constant (Km) is 110 ± 20 µM, the kcat is 26.2 ± 0.7 s⁻¹ and the kcat/Km came out at 238000 ± 44000 M⁻¹ s⁻¹.

B4: alanine:glyoxylate aminotransferase variant P319L on the major allele (enzyme, human, UniProt P21549 1-392, looked up)
chain: MASHKLLVTPPKALLKPLSIPNQLLLGPGPSNLPPRIMAAGGLQMIGSMSKDMYQIMDEIKEGIQYVFQTRNPLTLVISGSGHCALEAALVNVLEPGDSFLVGANGIWGQRAVDIGERIGARVHPMTKDPGGHYTLQEVEEGLAQHKPVLLFLTHGESSTGVLQPLDGFGELCHRYKCLLLVDSVASLGGTPLYMDRQGIDILYSGSQKALNAPPGTSLISFSDKAKKKMYSRKTKPFSFYLDIKWLANFWGCDDQPRMYHHTIPVISLYSLRESLALIAEQGLENSWRQHREAAAYLHGRLQALGLQLFVKDPALRLLTVTTVAVPAGYDWRDIVSYVIDHFDIEIMGGLGPSTGKVLRIGLLGCNATRENVDRVTEALRAALQHCPKKKL
modifications: holo-form: pyridoxal 5'-phosphate in Schiff base linkage with the lysine at position 209; apo-form: without PLP
B4: in data set [2], the “stoichiometry N” value amounted to 2.

B5: alanine:glyoxylate aminotransferase variant S187F on the major allele (enzyme, human, UniProt P21549 1-392, looked up)
chain: MASHKLLVTPPKALLKPLSIPNQLLLGPGPSNLPPRIMAAGGLQMIGSMSKDMYQIMDEIKEGIQYVFQTRNPLTLVISGSGHCALEAALVNVLEPGDSFLVGANGIWGQRAVDIGERIGARVHPMTKDPGGHYTLQEVEEGLAQHKPVLLFLTHGESSTGVLQPLDGFGELCHRYKCLLLVDSVAFLGGTPLYMDRQGIDILYSGSQKALNAPPGTSLISFSDKAKKKMYSRKTKPFSFYLDIKWLANFWGCDDQPRMYHHTIPVISLYSLRESLALIAEQGLENSWRQHREAAAYLHGRLQALGLQLFVKDPALRLPTVTTVAVPAGYDWRDIVSYVIDHFDIEIMGGLGPSTGKVLRIGLLGCNATRENVDRVTEALRAALQHCPKKKL
modifications: holo-form: pyridoxal 5'-phosphate in Schiff base linkage with the lysine at position 209; apo-form: without PLP
For the protein B5, the “stoichiometry N” value in data set [2] was determined as 2.

B6: alanine:glyoxylate aminotransferase variant S218L on the major allele (enzyme, human, UniProt P21549 1-392, looked up)
chain: MASHKLLVTPPKALLKPLSIPNQLLLGPGPSNLPPRIMAAGGLQMIGSMSKDMYQIMDEIKEGIQYVFQTRNPLTLVISGSGHCALEAALVNVLEPGDSFLVGANGIWGQRAVDIGERIGARVHPMTKDPGGHYTLQEVEEGLAQHKPVLLFLTHGESSTGVLQPLDGFGELCHRYKCLLLVDSVASLGGTPLYMDRQGIDILYSGSQKALNAPPGTLLISFSDKAKKKMYSRKTKPFSFYLDIKWLANFWGCDDQPRMYHHTIPVISLYSLRESLALIAEQGLENSWRQHREAAAYLHGRLQALGLQLFVKDPALRLPTVTTVAVPAGYDWRDIVSYVIDHFDIEIMGGLGPSTGKVLRIGLLGCNATRENVDRVTEALRAALQHCPKKKL
modifications: holo-form: pyridoxal 5'-phosphate in Schiff base linkage with the lysine at position 209; apo-form: without PLP
Turning to B6, in data set [2], the “stoichiometry N” value amounted to 2.

B7: alanine:glyoxylate aminotransferase variant D183N on the major allele (enzyme, human, UniProt P21549 1-392, looked up)
chain: MASHKLLVTPPKALLKPLSIPNQLLLGPGPSNLPPRIMAAGGLQMIGSMSKDMYQIMDEIKEGIQYVFQTRNPLTLVISGSGHCALEAALVNVLEPGDSFLVGANGIWGQRAVDIGERIGARVHPMTKDPGGHYTLQEVEEGLAQHKPVLLFLTHGESSTGVLQPLDGFGELCHRYKCLLLVNSVASLGGTPLYMDRQGIDILYSGSQKALNAPPGTSLISFSDKAKKKMYSRKTKPFSFYLDIKWLANFWGCDDQPRMYHHTIPVISLYSLRESLALIAEQGLENSWRQHREAAAYLHGRLQALGLQLFVKDPALRLPTVTTVAVPAGYDWRDIVSYVIDHFDIEIMGGLGPSTGKVLRIGLLGCNATRENVDRVTEALRAALQHCPKKKL
modifications: holo-form: pyridoxal 5'-phosphate in Schiff base linkage with the lysine at position 209; apo-form: without PLP
Regarding B7, the “stoichiometry N” value in data set [2] is 2.

B8: alanine:glyoxylate aminotransferase variant G161C on the minor allele (enzyme, human, UniProt P21549 1-392, looked up)
chain: MASHKLLVTPLKALLKPLSIPNQLLLGPGPSNLPPRIMAAGGLQMIGSMSKDMYQIMDEIKEGIQYVFQTRNPLTLVISGSGHCALEAALVNVLEPGDSFLVGANGIWGQRAVDIGERIGARVHPMTKDPGGHYTLQEVEEGLAQHKPVLLFLTHGESSTCVLQPLDGFGELCHRYKCLLLVDSVASLGGTPLYMDRQGIDILYSGSQKALNAPPGTSLISFSDKAKKKMYSRKTKPFSFYLDIKWLANFWGCDDQPRMYHHTIPVISLYSLRESLALIAEQGLENSWRQHREAAAYLHGRLQALGLQLFVKDPALRLPTVTTVAVPAGYDWRDIVSYVMDHFDIEIMGGLGPSTGKVLRIGLLGCNATRENVDRVTEALRAALQHCPKKKL
modifications: holo-form: pyridoxal 5'-phosphate in Schiff base linkage with the lysine at position 209; apo-form: without PLP
As for B8, the “stoichiometry N” value in data set [2] came to 2.

B9: alanine:glyoxylate aminotransferase variant W108R on the minor allele (enzyme, human, UniProt P21549 1-392, looked up)
chain: MASHKLLVTPLKALLKPLSIPNQLLLGPGPSNLPPRIMAAGGLQMIGSMSKDMYQIMDEIKEGIQYVFQTRNPLTLVISGSGHCALEAALVNVLEPGDSFLVGANGIRGQRAVDIGERIGARVHPMTKDPGGHYTLQEVEEGLAQHKPVLLFLTHGESSTGVLQPLDGFGELCHRYKCLLLVDSVASLGGTPLYMDRQGIDILYSGSQKALNAPPGTSLISFSDKAKKKMYSRKTKPFSFYLDIKWLANFWGCDDQPRMYHHTIPVISLYSLRESLALIAEQGLENSWRQHREAAAYLHGRLQALGLQLFVKDPALRLPTVTTVAVPAGYDWRDIVSYVMDHFDIEIMGGLGPSTGKVLRIGLLGCNATRENVDRVTEALRAALQHCPKKKL
modifications: holo-form: pyridoxal 5'-phosphate in Schiff base linkage with the lysine at position 209; apo-form: without PLP
On to B9, for which, in data set [2], the “stoichiometry N” value is 2.

B10: AGT-Ma (Homo sapiens; S218L) (protein)
chain: MASHKLLVTPPKALLKPLSIPNQLLLGPGPSNLPPRIMAAGGLQMIGSMSKDMYQIMDEIKEGIQYVFQTRNPLTLVISGSGHCALEAALVNVLEPGDSFLVGANGIWGQRAVDIGERIGARVHPMTKDPGGHYTLQEVEEGLAQHKPVLLFLTHGESSTGVLQPLDGFGELCHRYKCLLLVDSVASLGGTPLYMDRQGIDILYSGSQKALNAPPGTLLISFSDKAKKKMYSRKTKPFSFYLDIKWLANFWGCDDQPRMYHHTIPVISLYSLRESLALIAEQGLENSWRQHREAAAYLHGRLQALGLQLFVKDPALRLPTVTTVAVPAGYDWRDIVSYVIDHFDIEIMGGLGPSTGKVLRIGLLGCNATRENVDRVTEALRAALQHCPKKKL
On to B10, for which, in data set [3], the Km turned out to be 29000 ± 6000 µM, the catalytic constant (kcat) was 2.7 ± 0.1 s⁻¹ and the kcat/Km came out at 90 ± 20 M⁻¹ s⁻¹.

B11: alanine:glyoxylate aminotransferase variant G161S on the minor allele (enzyme, human, UniProt P21549 1-392, looked up)
chain: MASHKLLVTPLKALLKPLSIPNQLLLGPGPSNLPPRIMAAGGLQMIGSMSKDMYQIMDEIKEGIQYVFQTRNPLTLVISGSGHCALEAALVNVLEPGDSFLVGANGIWGQRAVDIGERIGARVHPMTKDPGGHYTLQEVEEGLAQHKPVLLFLTHGESSTSVLQPLDGFGELCHRYKCLLLVDSVASLGGTPLYMDRQGIDILYSGSQKALNAPPGTSLISFSDKAKKKMYSRKTKPFSFYLDIKWLANFWGCDDQPRMYHHTIPVISLYSLRESLALIAEQGLENSWRQHREAAAYLHGRLQALGLQLFVKDPALRLPTVTTVAVPAGYDWRDIVSYVMDHFDIEIMGGLGPSTGKVLRIGLLGCNATRENVDRVTEALRAALQHCPKKKL
modifications: holo-form: pyridoxal 5'-phosphate in Schiff base linkage with the lysine at position 209; apo-form: without PLP
Consider B11, for which the “stoichiometry N” value in data set [2] was found to be 2.

B12: alanine:glyoxylate aminotransferase variant S158L on the major allele (enzyme, human, UniProt P21549 1-392, looked up)
chain: MASHKLLVTPPKALLKPLSIPNQLLLGPGPSNLPPRIMAAGGLQMIGSMSKDMYQIMDEIKEGIQYVFQTRNPLTLVISGSGHCALEAALVNVLEPGDSFLVGANGIWGQRAVDIGERIGARVHPMTKDPGGHYTLQEVEEGLAQHKPVLLFLTHGELSTGVLQPLDGFGELCHRYKCLLLVDSVASLGGTPLYMDRQGIDILYSGSQKALNAPPGTSLISFSDKAKKKMYSRKTKPFSFYLDIKWLANFWGCDDQPRMYHHTIPVISLYSLRESLALIAEQGLENSWRQHREAAAYLHGRLQALGLQLFVKDPALRLPTVTTVAVPAGYDWRDIVSYVIDHFDIEIMGGLGPSTGKVLRIGLLGCNATRENVDRVTEALRAALQHCPKKKL
modifications: holo-form: pyridoxal 5'-phosphate in Schiff base linkage with the lysine at position 209; apo-form: without PLP
For the protein B12, the “stoichiometry N” value in data set [2] was 2.

Values taken from article PMC3271384 (Molecular Genetics and Metabolism, 2012).
